Assay [1] deals with T1, ALK-1/BMPR-2 receptor pair of the PathHunter U2Os dimerization cells (DiscoverX 93-0962C3) (UniProt P37023 22-503; Q13873 27-1038). Description: cell-based or functional assay.
Assay [2] has as its target T1, ALK-1/BMPR-2 receptor pair of the …. Description: cell-based or functional assay. This is another data set of the same source.
Assay [3] concerns the target human ALK1 protein (Sino Biological, #10066-H08H) (human, UniProt P37023 22-118). Kind of assay: ELISA, coated human ALK1. The protocol: These binders were then tested using an ELISA assay. High binding plates (Corning, 9018) were coated with either 2 μg/ml of human BMPRII protein (Sino Biological, #10551-H08H) or 2 μg/ml of human ALK1 protein (Sino Biological, #10066-H08H) overnight at 4C. The plates were then washed three times with wash buffer (R&D Systems, WA126). […] The plates were then washed three times with wash buffer and DGL antibodies or controls, which were diluted with PBS and 0.1% BSA. The antibodies were incubated for one hour at room temperature and then the plates were washed three times with wash buffer. The plates were then incubated with mouse anti-human IgG Fc secondary—HRP (diluted with PBS/0.1% BSA); 100 ul per well at 2 μg/ml and incubated at room temperature for one hour. The plate was washed three times in wash buffer and then 100 ul TMB (R&D Systems, DY9998B, substrate reagent pack). After the wells turn blue, 50 ul of stop solution (R&D Systems, DY994) was added to each well and the absorbance of the plate was read at 450 nm. results can be found in Table 8.

Positions count from the first letter of the chain named. Where two headings read alike, the source gives them in different places.

human ALK1 protein (Sino Biological, #10066-H08H), sequence (P37023 22-118 limits assumed): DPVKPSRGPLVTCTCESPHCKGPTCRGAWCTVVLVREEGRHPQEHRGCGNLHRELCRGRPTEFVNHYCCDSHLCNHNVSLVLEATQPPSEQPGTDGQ
T1 sequence (P37023 22-503, chain 1 of 2): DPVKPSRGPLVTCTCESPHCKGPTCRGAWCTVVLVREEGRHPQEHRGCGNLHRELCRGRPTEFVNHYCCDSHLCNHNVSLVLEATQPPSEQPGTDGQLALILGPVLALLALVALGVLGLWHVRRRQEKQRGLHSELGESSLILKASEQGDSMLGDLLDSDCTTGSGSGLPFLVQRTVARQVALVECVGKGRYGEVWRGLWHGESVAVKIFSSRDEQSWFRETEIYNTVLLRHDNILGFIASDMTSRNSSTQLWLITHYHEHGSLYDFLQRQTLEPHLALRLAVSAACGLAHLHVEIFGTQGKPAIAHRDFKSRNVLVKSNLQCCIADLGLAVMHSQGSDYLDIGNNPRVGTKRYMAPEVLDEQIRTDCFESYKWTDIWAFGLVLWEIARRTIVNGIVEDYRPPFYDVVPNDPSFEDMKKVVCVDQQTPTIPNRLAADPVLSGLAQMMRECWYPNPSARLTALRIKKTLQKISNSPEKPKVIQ
T1 sequence (Q13873 27-1038, chain 2 of 2): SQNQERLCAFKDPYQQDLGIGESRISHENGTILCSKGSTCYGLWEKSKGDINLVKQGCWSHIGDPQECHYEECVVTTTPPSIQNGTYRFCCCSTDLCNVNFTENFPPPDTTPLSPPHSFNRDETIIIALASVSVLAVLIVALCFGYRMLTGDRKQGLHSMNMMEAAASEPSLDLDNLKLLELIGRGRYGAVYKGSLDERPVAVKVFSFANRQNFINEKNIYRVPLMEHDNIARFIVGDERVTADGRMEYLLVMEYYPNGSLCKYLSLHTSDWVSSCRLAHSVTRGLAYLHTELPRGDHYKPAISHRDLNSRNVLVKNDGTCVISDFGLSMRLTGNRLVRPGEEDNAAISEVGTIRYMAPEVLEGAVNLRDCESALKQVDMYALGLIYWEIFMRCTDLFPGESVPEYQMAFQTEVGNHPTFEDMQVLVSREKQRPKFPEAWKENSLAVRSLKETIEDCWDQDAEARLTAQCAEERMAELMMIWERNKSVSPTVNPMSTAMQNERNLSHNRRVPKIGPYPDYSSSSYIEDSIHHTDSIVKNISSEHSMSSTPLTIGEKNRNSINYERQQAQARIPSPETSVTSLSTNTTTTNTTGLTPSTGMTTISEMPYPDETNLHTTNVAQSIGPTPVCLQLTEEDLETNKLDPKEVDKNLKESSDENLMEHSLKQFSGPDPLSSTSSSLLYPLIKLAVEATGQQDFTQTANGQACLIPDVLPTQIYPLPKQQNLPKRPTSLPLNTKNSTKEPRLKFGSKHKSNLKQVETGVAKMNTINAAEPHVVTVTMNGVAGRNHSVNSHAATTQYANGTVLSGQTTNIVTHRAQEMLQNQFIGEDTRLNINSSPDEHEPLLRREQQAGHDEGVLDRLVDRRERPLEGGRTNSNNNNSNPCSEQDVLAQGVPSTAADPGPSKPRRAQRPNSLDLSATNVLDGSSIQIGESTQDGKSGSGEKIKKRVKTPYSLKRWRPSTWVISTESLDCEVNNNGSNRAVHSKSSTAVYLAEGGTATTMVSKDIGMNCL

B1: DGL267 (bispecific antibody)
chain 1: EVQLLESGGGLVQPGGSLRLSCAASGFTFSSYAMSWVRQAPGKGLEWVANINQDGSEKNYVDSMRGRFTISRDNSKNTLYLQMNSLRAEDTAVYYCAREFDYWGQGTLVTVTSSGGGGSGGGGSGGGGSQSVLAQPPSASGTPGQRVTISCSGSSSNIGSNYVYWYQQLPGTAPKLLIYGNNKRPSGVPDRFSGSKSGTSASLAISGLRSEDEADYYCAAWDDSLNGRVFGGGTKLTVLGGGGSGGGGSGGGGSGVECPPCPAPPVAGPSVFLFPPKPKDTLMISRTPEVTCVVVDVSHEDPEVQFNWYVDGVEVHNAKTKPREEQFNSTFRVVSVLTVVHQDWLNGKEYKCKVSNKGLPAPIEKTISKTKGQPREPQVYTLPPCREEMTKNQVSLWCLVKGFYPSDIAVEWESNGQPENNYKTTPPMLDSDGSFFLYSKLTVDKSRWQQGNVFSCSVMHEALHNHYTQKSLSLSPG
chain 2: EVQLLESGGGLVQPGGSLRLSCAASGFTFSDYYMTWIRQAPGKGLEWVSSISGGSTYYADSRKGRFTISRDNSENTLYLQMNSLRAEDTAVYYCARDFGVAGWFGQYGMDVWGQGTLVTVSSGGGGSGGGGSGGGGSQSVLTQPPSASGTPGQRVTISCTGSSSNIGAGYDVHWYQQLPGTAPKLLIYRSNQRPSGVPDRFSGSKSGTSASLAISGLRSEDEADYYCSSYAGNYNLVFGGGTKLTVLGGGGSGGGGSGGGGSGVECPPCPAPPVAGPSVFLFPPKPKDTLMISRTPEVTCVVVDVSHEDPEVQFNWYVDGVEVHNAKTKPREEQFNSTFRVVSVLTVVHQDWLNGKEYKCKVSNKGLPAPIEKTISKTKGQPREPQVCTLPPSREEMTKNQVSLSCAVKGFYPSDIAVEWESNGQPENNYKTTPPMLDSDGSFFLVSKLTVDKSRWQQGNVFSCSVMHEALHNHYTQKSLSLSPG
B1: in assay [1], the “% Emax BMP9” value is 46%, the “EC50” value came out at 0.9 nM and the “Emax (RLU)” value is 1.23e+06 RLU.

B2: DGL639 (bispecific antibody)
chain 1: EVQLLESGGGLVQPGGSLRLSCAASGFTFSDYYMTWIRQAPGKGLEWVSSISGGSTYYADSRKGRFTISRDNSENTLYLQMNSLRAEDTAVYYCARNVTSGGYFGSFGLDLWGQGTLVTVSSGGGGSGGGGSGGGGSQSVLTQPPSASGTPGQRVTISCTGSSSNIGAGYDVHWYQQLPGTAPKLLIYRSNQRPSGVPDRFSGSKSGTSASLAISGLRSEDEADYYCSSYAGNYNLVFGGGTKLTVLDKTHTCPPCPAPEAAGAPSVFLFPPKPKDTLMISRTPEVTCVVVDVSHEDPEVKFNWYVDGVEVHNAKTKPREEQYNSTYRVVSVLTVLHQDWLNGKEYKCKVSNKALPAPIEKTISKAKGQPREPQVCTLPPSRDELTKNQVSLSCAVKGFYPSDIAVEWESNGQPENNYKTTPPVLDSDGSFFLVSKLTVDKSRWQQGNVFSCSVMHEALHNHYTQKSLSLSPGWSHPQFEK
chain 2: not shown
On to B2, for which, in assay [2], the “% Emax BMP9” value turned out to be 41% and the “Emax (RLU)” value was 752000 RLU. In assay [3], the “Abs450 1 nM” value was 0.09, the “Abs450 10 nM” value was 0.46 and the “Abs450 100 nM” value stood at 1.39.

B3: DGL636 (bispecific antibody)
chain 1: B2 chain 1 with N97W, V98E, G101S, Y103G, F107G, D110S, L111H
chain 2: not shown
Turning to B3, in assay [2], the “% Emax BMP9” value stood at 20% and the “Emax (RLU)” value stood at 362000 RLU. For the same molecule, in assay [3], the “Abs450 1 nM” value turned out to be 0.11, the “Abs450 10 nM” value came to 0.56 and the “Abs450 100 nM” value turned out to be 1.45.

B4: DGL640 (bispecific antibody)
chain 1: B2 chain 1 with N97W, V98E, F104Y, F107G, D110T, L111I
chain 2: not shown
For the molecule B4, in assay [2], the “% Emax BMP9” value amounted to 83% and the “Emax (RLU)” value is 1.53e+06 RLU. Further, in assay [3], the “Abs450 1 nM” value was determined as 0.09, the “Abs450 10 nM” value stood at 0.47 and the “Abs450 100 nM” value was 1.4.

B5: DGL637 (bispecific antibody)
chain 1: B2 chain 1 with N97L, V98T, T99V, S100D, Y103G, F104Y, F107G
chain 2: not shown
Turning to B5, in assay [2], the “% Emax BMP9” value was determined as 21% and the “Emax (RLU)” value was determined as 382000 RLU. Also, in assay [3], the “Abs450 1 nM” value was found to be 0.16, the “Abs450 10 nM” value stood at 0.77 and the “Abs450 100 nM” value stood at 1.48.

B6: DGL638 (bispecific antibody)
chain 1: B2 chain 1 with V98E, T99V, F104Y, S106E, D110S
chain 2: not shown
As for B6, in assay [2], the “% Emax BMP9” value came to 80% and the “Emax (RLU)” value was determined as 1.47e+06 RLU. Besides, in assay [3], the “Abs450 1 nM” value was found to be 0.05, the “Abs450 10 nM” value was 0.22 and the “Abs450 100 nM” value was 1.02.

B7: DGL642 (bispecific antibody)
chain 1: EVQLLESGGGLVQPGGSLRLSCAASGFTFSNAWMNWVRQAPGKGLEWVSSISSSSSYIYYADSVKGRFTISRDNSKNTLYLQMNSLRAEDTAVYYCARSNGSGGSTYPLDLWGQGTLVTVTSSGGGGSGGGGSGGGGSQSVLTQPPSASGTPGQRVTISCSGSRSNIGSNSVHWYQQLPGTAPKLLIYGNSNRPSGVPDRFSGSKSGTSASLAISGLRSEDEADYYCQSYDSSLNDHVVFGGGTKLTVLDKTHTCPPCPAPEAAGAPSVFLFPPKPKDTLMISRTPEVTCVVVDVSHEDPEVKFNWYVDGVEVHNAKTKPREEQYNSTYRVVSVLTVLHQDWLNGKEYKCKVSNKALPAPIEKTISKAKGQPREPQVCTLPPSRDELTKNQVSLSCAVKGFYPSDIAVEWESNGQPENNYKTTPPVLDSDGSFFLVSKLTVDKSRWQQGNVFSCSVMHEALHNHYTQKSLSLSPGWSHPQFEK
chain 2: not shown
Consider B7, for which, in assay [2], the “% Emax BMP9” value came out at 14% and the “Emax (RLU)” value is 255000 RLU. In assay [3], the “Abs450 1 nM” value was determined as 0.08, the “Abs450 10 nM” value worked out at 0.09 and the “Abs450 100 nM” value was found to be 0.5.

B8: DGL646 (bispecific antibody)
chain 1: B7 chain 1 with S99A, N100V, S102A, G103S, G104T, S105V, T106Y, Y107F, P108G, L111Q
chain 2: not shown
Turning to B8, in assay [2], the “% Emax BMP9” value came to 18% and the “Emax (RLU)” value was 333000 RLU. In assay [3], the “Abs450 1 nM” value was determined as 0.06, the “Abs450 10 nM” value stood at 0.15 and the “Abs450 100 nM” value stood at 0.8.

B9: DGL650 (bispecific antibody)
chain 1: EVQLLESGGGLVQPGGSLRLSCAASGFTFSLAWMNWVRQAPGKGLEWVSSISSSTSYIYYADSVKGRFTISRDNSKNTLYLQMNSLRAEDTAVYYCARAVAAGGFFWGLDQWGQGTLVTVTSSGGGGSGGGGSGGGGSQSVLTQPPSASGTPGQRVTISCSGSRSNIGSNSVHWYQQLPGTAPKLLIYGNSNRPSGVPDRFSGSKSGTSASLAISGLRSEDEADYYCQSYDSSLNDHVVFGGGTKLTVLDKTHTCPPCPAPEAAGAPSVFLFPPKPKDTLMISRTPEVTCVVVDVSHEDPEVKFNWYVDGVEVHNAKTKPREEQYNSTYRVVSVLTVLHQDWLNGKEYKCKVSNKALPAPIEKTISKAKGQPREPQVCTLPPSRDELTKNQVSLSCAVKGFYPSDIAVEWESNGQPENNYKTTPPVLDSDGSFFLVSKLTVDKSRWQQGNVFSCSVMHEALHNHYTQKSLSLSPGWSHPQFEK
chain 2: not shown
Consider B9, for which, in assay [2], the “% Emax BMP9” value turned out to be 43% and the “Emax (RLU)” value is 801000 RLU. In addition, in assay [3], the “Abs450 1 nM” value is 0.08, the “Abs450 10 nM” value stood at 0.15 and the “Abs450 100 nM” value is 0.65.

B10: DGL643 (bispecific antibody)
chain 1: B7 chain 1 with T106D
chain 2: not shown
For B10, in assay [2], the “% Emax BMP9” value came to 13% and the “Emax (RLU)” value worked out at 246000 RLU. Moreover, in assay [3], the “Abs450 1 nM” value worked out at 0.04, the “Abs450 10 nM” value came to 0.13 and the “Abs450 100 nM” value came out at 0.71.

Source of the values: US20250002588A1 (DIAGONAL THERAPEUTICS, published 2025).
